Measured values published in US20240400614A1, “CLEAVABLE PEPTIDES AND METHODS OF USE THEREOF” (Bright Peak Therapeutics AG, priority 2023, published 2024).
Square brackets hold non-standard residues; d marks the D form. Ends that are not written are not given here. Tyr(3-NO2) = N[C@@H](Cc1ccc(O)c([N+](=O)[O-])c1)C(=O)O; 2Abz = Nc1ccccc1C(=O)O

Columns and labels:
Format in all cases: biochemical
[1] = target: uPA (Homo sapiens, UniProt P00749); assay: FRET peptide cleavage efficiency with uPA
[2] = target: T1, matriptase (Homo sapiens, UniProt Q9Y5Y6); assay: FRET peptide cleavage efficiency with matriptase
T1 construct: purchased R&D Systems 3946-SEB
T1 sequence (Q9Y5Y6 615-855 limits assumed): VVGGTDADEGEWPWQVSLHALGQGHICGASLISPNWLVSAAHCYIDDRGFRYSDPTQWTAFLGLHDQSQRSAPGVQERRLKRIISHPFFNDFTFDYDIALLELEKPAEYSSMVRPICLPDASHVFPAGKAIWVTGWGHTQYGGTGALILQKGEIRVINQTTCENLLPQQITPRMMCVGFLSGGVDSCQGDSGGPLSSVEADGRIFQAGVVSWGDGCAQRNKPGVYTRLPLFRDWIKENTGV

[3] = target: T2, MMP-2 (Homo sapiens, UniProt P08253); assay: FRET peptide cleavage efficiency with MMP-2
T2 construct: purchased SIGMA PF023
T2 sequence (P08253 110-660): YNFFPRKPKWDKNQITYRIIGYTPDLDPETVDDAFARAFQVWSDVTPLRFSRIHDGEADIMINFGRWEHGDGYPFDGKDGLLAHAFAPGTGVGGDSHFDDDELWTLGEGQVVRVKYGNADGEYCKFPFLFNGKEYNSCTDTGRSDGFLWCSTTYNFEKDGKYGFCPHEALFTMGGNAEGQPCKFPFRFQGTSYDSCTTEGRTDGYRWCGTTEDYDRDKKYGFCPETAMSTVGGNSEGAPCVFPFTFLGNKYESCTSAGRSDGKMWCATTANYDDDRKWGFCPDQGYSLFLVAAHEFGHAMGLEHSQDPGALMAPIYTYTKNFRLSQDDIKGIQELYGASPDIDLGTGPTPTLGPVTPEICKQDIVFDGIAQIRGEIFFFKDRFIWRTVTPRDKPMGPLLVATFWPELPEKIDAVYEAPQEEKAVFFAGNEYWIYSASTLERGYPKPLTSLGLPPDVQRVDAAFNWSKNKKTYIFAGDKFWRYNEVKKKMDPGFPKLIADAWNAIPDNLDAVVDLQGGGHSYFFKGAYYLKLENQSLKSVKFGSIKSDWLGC

[4] = target: T3, MMP-7 (Homo sapiens, UniProt P09237); assay: FRET peptide cleavage efficiency with MMP-7 (standard pH 7.5; also pH 6.5)
T3 construct: purchased SIGMA CC1059
T3 sequence (P09237 95-267): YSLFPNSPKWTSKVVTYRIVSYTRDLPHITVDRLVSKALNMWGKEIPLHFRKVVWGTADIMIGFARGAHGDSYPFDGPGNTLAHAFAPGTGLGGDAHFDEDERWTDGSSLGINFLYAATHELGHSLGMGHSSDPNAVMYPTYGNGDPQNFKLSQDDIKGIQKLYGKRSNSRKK

[5] = target: T4, MMP-9 (Homo sapiens, UniProt P14780); assay: FRET peptide cleavage efficiency with MMP-9 (standard pH 7.5; also pH 6.5)
T4 construct: purchased SIGMA PF024
T4 sequence (P14780 94-707): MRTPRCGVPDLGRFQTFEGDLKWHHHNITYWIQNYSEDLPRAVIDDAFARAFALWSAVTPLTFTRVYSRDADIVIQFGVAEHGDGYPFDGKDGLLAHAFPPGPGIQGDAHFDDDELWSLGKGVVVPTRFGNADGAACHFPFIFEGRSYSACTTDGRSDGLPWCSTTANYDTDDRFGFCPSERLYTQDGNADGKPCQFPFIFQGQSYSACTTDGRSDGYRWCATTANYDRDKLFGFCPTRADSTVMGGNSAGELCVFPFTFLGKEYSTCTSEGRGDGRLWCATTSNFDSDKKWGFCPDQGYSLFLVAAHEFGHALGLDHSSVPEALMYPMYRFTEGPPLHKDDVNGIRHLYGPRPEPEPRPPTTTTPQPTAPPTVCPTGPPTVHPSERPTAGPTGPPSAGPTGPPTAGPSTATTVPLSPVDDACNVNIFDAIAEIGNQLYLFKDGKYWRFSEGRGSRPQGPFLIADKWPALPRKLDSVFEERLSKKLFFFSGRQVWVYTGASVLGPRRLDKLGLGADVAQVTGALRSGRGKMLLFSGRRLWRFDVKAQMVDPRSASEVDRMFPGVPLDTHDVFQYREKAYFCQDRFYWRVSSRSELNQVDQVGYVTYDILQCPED

[6] = 200 uM linker, 1 ug/ml protease, 37° C., buffer A pH 8.5
[7] = 200 uM linker, 1 ug/ml protease, 37° C., buffer B pH 9.0
[8] = t = 15 min, standard conditions (Table 8)
[9] = t = 60 min, standard conditions (Table 8)
[10] = t = 120 min, standard conditions (Table 8)

Row | % cleavage MMP-2 t = 15 min ([3]; t = 15 min (Table 9)) | % cleavage MMP-2 t = 60 min ([3]; t = 60 min (Table 9)) | % cleavage MMP-2 t = 120 min ([3]; t = 120 min (Table 9)) | % cleavage MMP-7 t = 15 min ([4]; t = 15 min (Table 9)) | % cleavage MMP-7 t = 60 min ([4]; t = 60 min (Table 9)) | % cleavage MMP-7 t = 120 min ([4]; t = 120 min (Table 9)) | % cleavage MMP-9 t = 15 min ([5]; t = 15 min (Table 9)) | % cleavage MMP-9 t = 60 min ([5]; t = 60 min (Table 9)) | % cleavage MMP-9 t = 120 min ([5]; t = 120 min (Table 9)) | % vcleavage uPA t = 15 min [1, 8] | % cleavage uPA t = 60 min ([1]; standard conditions (Table 8)) | % cleavage uPA t = 120 min ([1]; standard conditions (Table 8)) | % cleavage Matriptase t = 15 min ([2]; standard conditions (Table 8)) | % cleavage Matriptase t = 60 min ([2]; standard conditions (Table 8)) | % cleavage Matriptase t = 120 min ([2]; standard conditions (Table 8)) | % cleavage MMP-2 t = 60 min [3, 9] | % cleavage MMP-2 t = 120 min [3, 10] | % cleavage MMP-7 t = 15 min [4, 8] | % cleavage MMP-7 t = 60 min [4, 9] | % cleavage MMP-7 t = 120 min [4, 10] | also measured | Sequence
1 | 76% | 100% | 100% | 0% | 0% | 0% | 32% | 100% | 100% | – | – | – | – | – | – | – | – | – | – | – | % cleavage uPA t = 15 min ([1]; t = 15 min, 200 uM linker, 1 ug/ml protease, 37° C., buffer A pH 8.5): 2%; % cleavage uPA t = 60 min [1, 6]: 11%; % cleavage uPA t = 120 min [1, 6]: 25%; % cleavage Matriptase t = 15 min [2, 7]: 90%; % cleavage Matriptase t = 60 min [2, 7]: 100%; % cleavage Matriptase t = 120 min [2, 7]: 100%; % cleavage MMP-2 t = 15 min ([3]; t = 15 min, 200 uM linker, 1 ug/ml protease, 37° C., buffer C pH 7.5): 76%; % cleavage MMP-2 t = 60 min ([3]; t = 60 min, 200 uM linker, 1 ug/ml protease, 37° C., buffer C pH 7.5): 100%; % cleavage MMP-2 t = 120 min ([3]; t = 120 min, 200 uM linker, 1 ug/ml protease, 37° C., buffer C pH 7.5): 100% | RGRRAANLVRPLGYFGKL ([2Abz]RGRRAANLVRPLGYFGKL[Tyr(3-NO2)]-NH2) [LNK060]
2 | 33% | 77% | 91% | 28% | 80% | 95% | 42% | 100% | 100% | 0% | 0% | 0% | 67% | 100% | 100% | 77% | 91% | 28% | 80% | 95% | % cleavage MMP-9 t = 15 min [5, 8]: 42%; % cleavage MMP-9 t = 60 min [5, 9]: 100%; % cleavage MMP-9 t = 120 min [5, 10]: 100% | RGRKPYMLQG ([2Abz]RGRKPYMLQG[Tyr(3-NO2)]-NH2) [LNK035]
3 | 92% | 100% | 100% | 32% | 89% | 100% | 100% | 100% | 100% | 0% | 0% | 0% | 100% | 100% | 100% | 100% | 100% | 32% | 89% | 100% | % cleavage MMP-9 t = 15 min [5, 8]: 100%; % cleavage MMP-9 t = 60 min [5, 9]: 100%; % cleavage MMP-9 t = 120 min [5, 10]: 100% | RGRKSPANLVG ([2Abz]RGRKSPANLVG[Tyr(3-NO2)]-NH2) [LNK034]
4 | 81% | 100% | 100% | 20% | 72% | 95% | 53% | 100% | 100% | 0% | 0% | 0% | 81% | 100% | 100% | 100% | 100% | 20% | 72% | 95% | % cleavage MMP-9 t = 15 min [5, 8]: 53%; % cleavage MMP-9 t = 60 min [5, 9]: 100%; % cleavage MMP-9 t = 120 min [5, 10]: 100% | RQRKVANLVG ([2Abz]RQRKVANLVG[Tyr(3-NO2)]-NH2) [LNK032]
5 | 0% | 0% | 1% | 1% | 4% | 9% | 0% | 1% | 2% | 0% | 0% | 0% | 0% | 0% | 0% | 0% | 1% | 1% | 4% | 9% | % cleavage MMP-9 t = 15 min [5, 8]: 0%; % cleavage MMP-9 t = 60 min [5, 9]: 1%; % cleavage MMP-9 t = 120 min [5, 10]: 2% | SGRVYMLQG ([2Abz]SGRVYMLQG[Tyr(3-NO2)]-NH2) [LNK044]
6 | 19% | 64% | 88% | 77% | 100% | 100% | 23% | 74% | 92% | 1% | 4% | 7% | 19% | 65% | 91% | 64% | 88% | 77% | 100% | 100% | % cleavage MMP-9 t = 15 min [5, 8]: 23%; % cleavage MMP-9 t = 60 min [5, 9]: 74%; % cleavage MMP-9 t = 120 min [5, 10]: 92% | SGRVAPQPLVD (not fully specified (N-terminus, C-terminus)) [LNK046]
